Experimental data from publication PMC4633990.

How the values were obtained:
[1] = biological target: HIV-1 Env of strain ZM53.12 (clade C) on pseudovirus ZM53.12.SG3 (HIV-1 ZM53.12 (clade C))
[2] = biological target: HIV-1 Env of strain AC10.29 (clade B) on pseudovirus AC10.29.SG3 (HIV-1 AC10.29 (clade B))
[3] = biological target: HIV-1 Env on HIV-1 IIIb-infected CEM-NKr-CCR5 cells (CEM-IIIb) (HIV-1 IIIb) (UniProt P04578)

Substance: VRC07-αCD3 bispecific immunomodulatory protein (bispecific antibody)
- IC50 of neutralisation of Env-pseudotyped virus ZM53.12.SG3 (clade C), TZM-bl target cells, luciferase [1]: 0.24 µg/mL
- IC50 of neutralisation of Env-pseudotyped virus AC10.29.SG3 (clade B), TZM-bl target cells, luciferase [2]: 0.346 µg/mL
- IFN-γ intracellular cytokine staining of human CD4 T cells co-cultured with HIV-infected CEM cells and 0.5 μg ml^−1 protein, relative to unstimulated CD4 T cells (1.4-fold in the absence of HIV-1) [3]: 9 fold
